We go through three substances from patent US20220193232A1.

Assay [1] has as its target kappa myeloma antigen (KMA) (human). Nature of the assay: cell-based or functional assay.
The next assay concerns the target Fc-receptors. Nature of the assay: cell-based or functional assay.

“KM.CAR_h_28TM_41BBz (from UniProt P10747 153-179; Q07011 214-255) (receptor)”: in assay [1], the CAR expression (GFP) in culture with JJN3 was determined as 17% and the expansion of CAR T-cell culture with JJN3 worked out at 5 fold.

Consider “KM.CAR_8a_28TM_41BBz (from UniProt P01732 138-182; P10747 153-179; Q07011 214-255) (receptor)”, for which, in assay [1], the CAR expression (GFP) in culture in the presence of JJN3 is 5% and the expansion of CAR T-cell culture in the presence of JJN3 is 8 fold.

On to KM.CAR-hCH2CH3-28z (receptor), for which the enrichment of CAR expressing T-cells in culture with PBMC alone (% of CD3+ T-cells) with Fc-receptors stood at 28.
